# Reference: paper PMC6947841
# Target: anti-TSLP-scFv-Fc-M4 (mutated recombinant antibody) (human)
# Assay: BLI
substance,measurement,value
"thymic stromal lymphopoietin (TSLP), standard recombinant human TSLP protein (from UniProt Q969D9 29-159) (ligand)",fold change of affinity against scFv-Fc-84,10 fold
